The data set deals with the molecule itself. Put plainly: negative-stain transmission electron microscopy; purified recombinant Vps1; oligomeric single rings and double-ring structures seen after negative staining.

Changes are numbered by the printed parent chain. Names and notes keep the numbering of the source.

B1: His-tagged Vps1 wild type (natural protein, S. cerevisiae, UniProt P21576 1-704, looked up)
chain: MDEHLISTINKLQDALAPLGGGSQSPIDLPQITVVGSQSSGKSSVLENIVGRDFLPRGTGIVTRRPLVLQLINRRPKKSEHAKVNQTANELIDLNINDDDKKKDESGKHQNEGQSEDNKEEWGEFLHLPGKKFYNFDEIRKEIVKETDKVTGANSGISSVPINLRIYSPHVLTLTLVDLPGLTKVPVGDQPPDIERQIKDMLLKYISKPNAIILSVNAANTDLANSDGLKLAREVDPEGTRTIGVLTKVDLMDQGTDVIDILAGRVIPLRYGYIPVINRGQKDIEHKKTIREALENERKFFENHPSYSSKAHYCGTPYLAKKLNSILLHHIRQTLPEIKAKIEATLKKYQNELINLGPETMDSASSVVLSMITDFSNEYAGILDGEAKELSSQELSGGARISYVFHETFKNGVDSLDPFDQIKDSDIRTIMYNSSGSAPSLFVGTEAFEVLVKQQIRRFEEPSLRLVTLVFDELVRMLKQIISQPKYSRYPALREAISNQFIQFLKDATIPTNEFVVDIIKAEQTYINTAHPDLLKGSQAMVMVEEKLHPRQVAVDPKTGKPLPTQPSSSKAPVMEEKSGFFGGFFSTKNKKKLAALESPPPVLKATGQMTERETMETEVIKLLISSYFSIVKRTIADIIPKALMLKLIVKSKTDIQKVLLEKLYGKQDIEELTKENDITIQRRKECKKMVEILRNASQIVSSV
notes: Vps1, dynamin-related protein of S. cerevisiae; also called recombinant Vps1; wild-type Vps1
On to B1, for which the binding result is reported as “binds”.

B2: His-tagged Vps1 S599D (natural protein, S. cerevisiae, UniProt P21576 1-704, looked up)
chain: B1 chain with S599D
notes: Vps1, dynamin-related protein of S. cerevisiae, with S599D; also called S599D mutant; pKA972
Turning to B2, the binding result is “binds”.

B3: His-tagged Vps1 S599V (natural protein, S. cerevisiae, UniProt P21576 1-704, looked up)
chain: B1 chain with S599V
notes: Vps1, dynamin-related protein of S. cerevisiae, with S599V; also called S599V mutant; pKA971
Consider B3, for which the binding result is given as “binds”.

The values are drawn from PMC4760221, “Phosphorylation Regulates the Endocytic Function of the Yeast Dynamin-Related Protein Vps1” (Molecular and Cellular Biology, 2015).
